System: Escherichia coli TOP10
Assay: shrunken log2 fold change of peptide-encoding DNA abundance (4.5 h post-induction vs induction); higher = less antimicrobial activity (less host growth inhibition)
Conditions: time post-induction: 4.5 h; library: site-saturation at positions 5, 18, 19, 20
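Also: peptides expressed intracellularly from a pBAD plasmid library in pooled LB shake-flask culture, induced with 0.3% L-arabinose, DNA abundance read by NGS, three biological replicates, DESeq2 with apeglm shrinkage.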

Sequence | shrunken log2 fold change
RRIRMRPPRLPRPRPRPPLYPRP | 0.445
RRIRARPPRLPRPRPRPMTDPRP | -0.414
RRIRRRPPRLPRPRPRPSARPRP | 0.349
RRIRSRPPRLPRPRPRPFSRPRP | -0.347
RRIRSRPPRLPRPRPRPNKCPRP | -0.42
RRIRRRPPRLPRPRPRPSSHPRP | -0.0976
RRIRARPPRLPRPRPRPIGEPRP | -0.0613
RRIRERPPRLPRPRPRPIPVPRP | -0.217
RRIRVRPPRLPRPRPRPWHTPRP | -0.33
RRIRFRPPRLPRPRPRPKVRPRP | -0.022
RRIRNRPPRLPRPRPRPSRYPRP | -0.000156
RRIRTRPPRLPRPRPRPDRKPRP | 0.00258
RRIRHRPPRLPRPRPRPEVHPRP | 0.16
RRIRFRPPRLPRPRPRPRVNPRP | -0.116
RRIRRRPPRLPRPRPRPAAEPRP | 0.845
RRIRLRPPRLPRPRPRPWYAPRP | -0.171
RRIRMRPPRLPRPRPRPDNVPRP | -0.0207
RRIRMRPPRLPRPRPRPATGPRP | 0.15
RRIRMRPPRLPRPRPRPEPQPRP | 2.17
RRIRIRPPRLPRPRPRPNNNPRP | -0.982
RRIRYRPPRLPRPRPRPYKRPRP | -2.31
RRIRTRPPRLPRPRPRPDFMPRP | -0.15
RRIRDRPPRLPRPRPRPAHYPRP | 0.0963
RRIRGRPPRLPRPRPRPWIYPRP | -0.372
RRIRGRPPRLPRPRPRPQFHPRP | -0.239

Sequence | shrunken log2 fold change
RRIRPRPPRLPRPRPRPYHPPRP | -0.246
RRIRWRPPRLPRPRPRPMQHPRP | 0.596
RRIRARPPRLPRPRPRPFMPPRP | -0.149
RRIRERPPRLPRPRPRPGNCPRP | 0.13
RRIRRRPPRLPRPRPRPHSPPRP | 0.252
RRIRGRPPRLPRPRPRPTMPPRP | 0.425
RRIRQRPPRLPRPRPRPYSAPRP | -0.00273
RRIRLRPPRLPRPRPRPQDWPRP | -0.104
RRIRDRPPRLPRPRPRPQNKPRP | -0.475
RRIRLRPPRLPRPRPRPTISPRP | -0.375
RRIRQRPPRLPRPRPRPIRGPRP | -0.0547
RRIRTRPPRLPRPRPRPTDYPRP | -0.263
RRIRLRPPRLPRPRPRPFDRPRP | -0.38
RRIRSRPPRLPRPRPRPWCFPRP | -0.715
RRIRKRPPRLPRPRPRPENPPRP | 0.126
RRIRNRPPRLPRPRPRPVVQPRP | 0.0488
RRIRLRPPRLPRPRPRPPTWPRP | 0.169
RRIRERPPRLPRPRPRPKWGPRP | -0.0917
RRIRLRPPRLPRPRPRPCKNPRP | -0.0458
RRIRNRPPRLPRPRPRPRWLPRP | 0.558
RRIRIRPPRLPRPRPRPYREPRP | -0.0673
RRIRSRPPRLPRPRPRPQCMPRP | -0.584
RRIRNRPPRLPRPRPRPTEKPRP | -0.0107
RRIRWRPPRLPRPRPRPWLMPRP | 0.116
RRIRLRPPRLPRPRPRPWMLPRP | -0.0153

Sequence | shrunken log2 fold change
RRIRWRPPRLPRPRPRPTMSPRP | -0.065
RRIRSRPPRLPRPRPRPDIEPRP | 0.0454
RRIRIRPPRLPRPRPRPCVLPRP | -0.145
RRIRARPPRLPRPRPRPKWMPRP | 0.191
RRIRYRPPRLPRPRPRPAFEPRP | -0.0224
RRIRERPPRLPRPRPRPPSFPRP | -0.126
RRIRSRPPRLPRPRPRPMVIPRP | -0.0364
RRIRMRPPRLPRPRPRPMAPPRP | 0.218
RRIRFRPPRLPRPRPRPHKYPRP | -0.411
RRIRCRPPRLPRPRPRPPQWPRP | 0.446
RRIRYRPPRLPRPRPRPESRPRP | -0.12
RRIRERPPRLPRPRPRPCGRPRP | -0.0316
RRIRYRPPRLPRPRPRPHINPRP | -0.806
RRIRVRPPRLPRPRPRPCGPPRP | -0.0876
RRIRRRPPRLPRPRPRPWAGPRP | 0.0855
RRIRKRPPRLPRPRPRPTGIPRP | 0.0402
RRIRYRPPRLPRPRPRPEIYPRP | -0.279
RRIRCRPPRLPRPRPRPVWTPRP | 0.0232
RRIRNRPPRLPRPRPRPQHNPRP | -0.625
RRIRERPPRLPRPRPRPGHYPRP | -0.121
RRIRERPPRLPRPRPRPGSSPRP | -0.331
RRIRTRPPRLPRPRPRPKPVPRP | 0.217
RRIRQRPPRLPRPRPRPKQYPRP | -0.359
RRIRWRPPRLPRPRPRPIQGPRP | 0.265
RRIRQRPPRLPRPRPRPHCWPRP | -0.0628

Sequence | shrunken log2 fold change
RRIRLRPPRLPRPRPRPYVYPRP | -0.706
RRIRLRPPRLPRPRPRPELCPRP | 0.173
RRIRHRPPRLPRPRPRPGHNPRP | -0.166
RRIRARPPRLPRPRPRPLTEPRP | 0.608
RRIRNRPPRLPRPRPRPYCEPRP | -0.469
RRIRPRPPRLPRPRPRPNTLPRP | -0.468
RRIRNRPPRLPRPRPRPVWYPRP | -0.326
RRIRKRPPRLPRPRPRPCAPPRP | 0.436
RRIRYRPPRLPRPRPRPFLAPRP | -0.649
RRIRRRPPRLPRPRPRPEGHPRP | 0.488
RRIRWRPPRLPRPRPRPWEEPRP | 0.0688
RRIRIRPPRLPRPRPRPFTEPRP | 0.0282
RRIRSRPPRLPRPRPRPGKLPRP | -0.0662
RRIRMRPPRLPRPRPRPPATPRP | 2.56
RRIRERPPRLPRPRPRPECGPRP | 0.612
RRIRVRPPRLPRPRPRPLNRPRP | -0.328
RRIRYRPPRLPRPRPRPVFRPRP | -0.258
RRIRYRPPRLPRPRPRPHMFPRP | 0.0171
RRIRARPPRLPRPRPRPDMCPRP | -0.335
RRIRYRPPRLPRPRPRPEIWPRP | 0.212
RRIRIRPPRLPRPRPRPLTRPRP | -0.265
RRIRKRPPRLPRPRPRPGGNPRP | 0.049
RRIRDRPPRLPRPRPRPKHVPRP | 0.139
RRIRGRPPRLPRPRPRPYPQPRP | 0.12
RRIRGRPPRLPRPRPRPLQRPRP | 0.762

Sequence | shrunken log2 fold change
RRIRHRPPRLPRPRPRPFNYPRP | 0.0485
RRIRARPPRLPRPRPRPAGYPRP | 0.399
RRIRMRPPRLPRPRPRPQDDPRP | -0.00208
RRIRQRPPRLPRPRPRPWMFPRP | -0.374
RRIRCRPPRLPRPRPRPYFRPRP | -0.759
RRIRFRPPRLPRPRPRPVRQPRP | 0.0478
RRIRGRPPRLPRPRPRPMHMPRP | 0.347
RRIRDRPPRLPRPRPRPATWPRP | 0.754
RRIRNRPPRLPRPRPRPHDGPRP | -0.378
RRIRERPPRLPRPRPRPYNWPRP | -0.276
RRIRRRPPRLPRPRPRPIFLPRP | 0.0228
RRIRCRPPRLPRPRPRPNSYPRP | -0.54
RRIRIRPPRLPRPRPRPGGNPRP | -0.0373
RRIRDRPPRLPRPRPRPFFKPRP | -0.127
RRIRSRPPRLPRPRPRPDMKPRP | -0.43
RRIRERPPRLPRPRPRPFNVPRP | -0.0305
RRIRQRPPRLPRPRPRPNQMPRP | -0.0557
RRIRCRPPRLPRPRPRPQSSPRP | -0.103
RRIRTRPPRLPRPRPRPEKIPRP | 0.0436
RRIRIRPPRLPRPRPRPTTWPRP | -0.165
RRIRFRPPRLPRPRPRPDSRPRP | 0.391
RRIRFRPPRLPRPRPRPGFDPRP | 0.0857
RRIRWRPPRLPRPRPRPSDSPRP | -0.0671
RRIRLRPPRLPRPRPRPLHQPRP | -0.297
RRIRQRPPRLPRPRPRPYPAPRP | -0.289

Sequence | shrunken log2 fold change
RRIRWRPPRLPRPRPRPVKPPRP | 0.539
RRIRHRPPRLPRPRPRPVRRPRP | 0.241
RRIRRRPPRLPRPRPRPKVEPRP | -0.0016
RRIRLRPPRLPRPRPRPLRHPRP | 0.171
RRIRRRPPRLPRPRPRPFMLPRP | 0.0692
RRIRCRPPRLPRPRPRPDEDPRP | -0.0684
RRIRYRPPRLPRPRPRPIGAPRP | -0.419
RRIRVRPPRLPRPRPRPPWWPRP | 0.665
RRIRRRPPRLPRPRPRPCQVPRP | 0.0476
RRIRNRPPRLPRPRPRPIIMPRP | -0.729
RRIRFRPPRLPRPRPRPWSPPRP | -0.491
RRIRSRPPRLPRPRPRPNEQPRP | 0.0903
RRIRNRPPRLPRPRPRPSGRPRP | -0.0659
RRIRYRPPRLPRPRPRPTIDPRP | -0.271
RRIRKRPPRLPRPRPRPPWEPRP | 1.23
RRIRLRPPRLPRPRPRPCLSPRP | 0.00058
RRIRNRPPRLPRPRPRPVRFPRP | 0.0789
RRIRHRPPRLPRPRPRPVDGPRP | -0.00557
RRIRWRPPRLPRPRPRPKAEPRP | -0.015
RRIRERPPRLPRPRPRPWSSPRP | 9.28e-05
RRIRMRPPRLPRPRPRPPRFPRP | 1.23
RRIRCRPPRLPRPRPRPAAVPRP | 0.346
RRIRCRPPRLPRPRPRPKERPRP | 0.238
RRIRYRPPRLPRPRPRPMGSPRP | -0.106
RRIRWRPPRLPRPRPRPDNTPRP | -0.25

Source: the supplement of paper PMC9112550, “Optimization of the antimicrobial peptide Bac7 by deep mutational scanning” (BMC Biology, 2022)
